This is an account of results in patent publication US20190300590A1 (PROTAGONIST THERAPEUTICS, published 2019).

The term IC50 denotes the concentration at which inhibition is half-maximal. Higher therefore signals lower potency.

Like-named read-outs stand apart in the source and are kept apart here. Bridges are numbered along the chain shown (N, C = ends). [ ]: non-standard residue; d: D form. 1Nal = N[C@@H](Cc1cccc2ccccc12)C(=O)O; 2Nal = N[C@@H](Cc1ccc2ccccc2c1)C(=O)O; AEF = NCCOc1ccc(C[C@H](N)C(=O)O)cc1; NMeQ = CN[C@@H](CCC(N)=O)C(=O)O; Cit = NC(=O)NCCC[C@H](N)C(=O)O; αMeL = CC(C)C[C@](C)(N)C(=O)O; Abu = CC[C@H](N)C(=O)O; AEA = NCCOCC(=O)O; βAla = NCCC(=O)O

The target of assay [1] is T1, Rat IL-23R_huFC (rat; human, UniProt F1LX96 39-369).
T1 sequence: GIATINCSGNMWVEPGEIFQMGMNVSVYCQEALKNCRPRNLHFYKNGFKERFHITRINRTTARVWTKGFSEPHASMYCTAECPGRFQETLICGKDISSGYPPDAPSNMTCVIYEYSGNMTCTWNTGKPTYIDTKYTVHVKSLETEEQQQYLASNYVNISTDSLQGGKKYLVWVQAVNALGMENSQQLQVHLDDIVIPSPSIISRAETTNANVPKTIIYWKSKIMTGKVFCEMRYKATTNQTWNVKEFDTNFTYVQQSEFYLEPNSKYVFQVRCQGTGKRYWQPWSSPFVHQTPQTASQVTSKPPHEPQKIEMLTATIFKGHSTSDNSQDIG
Put plainly: rat IL-23R competitive ELISA. A general note: ELISA stands for enzyme-linked immunosorbent assay.

The next assay concerns the target T2, IL-23R on DB cells (human, UniProt Q5VWK5 24-629).
T2 sequence (looked up): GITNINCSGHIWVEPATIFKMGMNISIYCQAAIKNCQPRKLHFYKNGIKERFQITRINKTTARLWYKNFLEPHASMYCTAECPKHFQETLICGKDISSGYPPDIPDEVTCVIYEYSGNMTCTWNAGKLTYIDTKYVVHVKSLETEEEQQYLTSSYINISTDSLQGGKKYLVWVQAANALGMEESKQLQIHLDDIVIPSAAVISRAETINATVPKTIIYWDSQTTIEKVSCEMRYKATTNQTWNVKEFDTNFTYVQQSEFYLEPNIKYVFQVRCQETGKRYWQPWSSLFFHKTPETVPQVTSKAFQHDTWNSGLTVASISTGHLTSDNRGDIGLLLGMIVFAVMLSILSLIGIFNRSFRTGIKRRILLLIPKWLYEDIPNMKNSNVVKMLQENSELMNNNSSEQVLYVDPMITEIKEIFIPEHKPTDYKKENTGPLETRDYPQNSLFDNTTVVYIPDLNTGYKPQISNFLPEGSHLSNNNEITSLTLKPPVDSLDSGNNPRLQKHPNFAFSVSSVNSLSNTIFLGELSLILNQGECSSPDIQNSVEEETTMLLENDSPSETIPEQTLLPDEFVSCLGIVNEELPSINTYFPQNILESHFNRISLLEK
Put plainly: cell-based or functional assay.

The target of the next assay is T3, IL23R_huFC (human, UniProt Q5VWK5 24-353).
T3 sequence (looked up): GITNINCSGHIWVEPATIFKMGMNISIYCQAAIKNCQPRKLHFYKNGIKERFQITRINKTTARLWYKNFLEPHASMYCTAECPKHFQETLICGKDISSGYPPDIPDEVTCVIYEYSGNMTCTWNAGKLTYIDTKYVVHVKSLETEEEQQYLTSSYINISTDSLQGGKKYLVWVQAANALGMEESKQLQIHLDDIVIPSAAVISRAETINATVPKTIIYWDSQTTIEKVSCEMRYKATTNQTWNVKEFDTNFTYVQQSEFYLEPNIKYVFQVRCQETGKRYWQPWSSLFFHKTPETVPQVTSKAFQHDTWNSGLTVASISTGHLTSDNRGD
Put plainly: human ELISA vs IL-23.

Assay [2] concerns the target Rat IL-23R_huFC (rat). Put plainly: rat ELISA vs IL-23.
In assay [3] the target is T4, IL-23R on human cells (IL-23R-expressing DB cells; human NK cells) (human, UniProt Q5VWK5 24-629).
T4 sequence (looked up): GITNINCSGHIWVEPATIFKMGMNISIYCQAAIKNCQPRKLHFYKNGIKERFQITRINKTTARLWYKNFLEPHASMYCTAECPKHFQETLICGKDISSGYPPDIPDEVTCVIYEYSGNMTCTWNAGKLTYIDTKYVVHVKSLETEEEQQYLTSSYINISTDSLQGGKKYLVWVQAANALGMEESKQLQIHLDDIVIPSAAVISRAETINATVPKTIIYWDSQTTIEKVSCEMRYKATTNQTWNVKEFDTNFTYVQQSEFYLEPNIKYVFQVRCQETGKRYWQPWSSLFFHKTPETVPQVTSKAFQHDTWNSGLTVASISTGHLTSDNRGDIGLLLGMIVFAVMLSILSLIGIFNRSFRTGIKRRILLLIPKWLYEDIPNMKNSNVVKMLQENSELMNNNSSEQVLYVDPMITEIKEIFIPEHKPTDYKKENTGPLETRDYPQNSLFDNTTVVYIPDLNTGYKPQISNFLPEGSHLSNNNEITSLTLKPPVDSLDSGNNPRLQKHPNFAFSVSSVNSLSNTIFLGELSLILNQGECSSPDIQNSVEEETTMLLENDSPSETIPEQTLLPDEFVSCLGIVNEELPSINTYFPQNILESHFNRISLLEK
Put plainly: cell-based or functional assay.

Assay [4] concerns the target T4, IL-23R on human cells …. Put plainly: cell-based or functional assay. The source holds these as a separate data set.
For assay [5], the target named is Rat IL-23R_huFC (rat). Put plainly: rat ELISA vs IL-23. This is another data set of the same source.

Molecule Ac-CADWVCY[1Nal][Cit]VFG[βAla][dK]-NH2 (disulfide 1-6 (inferred)) [Ac-CADWVCY-[1-Nal]-[Cit]-VFG-[β-Ala]-[(D)Lys]-NH2] returned an IC50 with Rat IL-23R_huFC [1] of 0.022 µM.

B1: [Ac-[Pen]-NTWQ-[Pen]-[Phe(4-OMe)]-[2-Nal]-[Achc]-KNN-NH2]2DIG (peptide)
peptide: XNTWQXFXXKNN
modifications: Ac; Pen-Pen disulfide; Phe(4-OMe); 2-Nal; Achc; NH2; DIG linker joins the two subunits
B1: in the assay with IL-23R on DB cells, the “pStat3 HTRF IC50” value was under 10 nM.

B2: [Ac-[Pen]-NTWQ-[Pen]-[Phe(4-OMe)]-[2-Nal]-[Aib]-KNN-NH2]2DIG (peptide)
peptide: XNTWQXFXXKNN
modifications: Ac; Pen-Pen disulfide; Phe(4-OMe); 2-Nal; Aib; NH2; DIG linker joins the two subunits
Consider B2, for which the “pStat3 HTRF IC50” value with IL-23R on DB cells was under 10 nM. As to Ac-C[NMeQ]TWQCYWRVFG[AEA][dK]-NH2 (disulfide 1-6 (inferred)) [Ac-C-[N-MeQln]-TWQCYWRVFG-[AEA]-[(D)Lys]-NH2], the IC50 with Rat IL-23R_huFC [1] came out at 0.085 µM. Regarding Ac-CNTWQCYWRVFG[AEA][dK]-NH2 (disulfide 1-6 (inferred)) [Ac-CNTWQCYWRVFG-[AEA]-[(D)Lys]-NH2], the half-maximal inhibitory concentration (IC50) with Rat IL-23R_huFC [1] came out at 0.079 µM.

In the case of Ac-[Abu]QTWQC[AEF][2Nal][αMeL][Cit]NN-NH2 (thioether 1-6) [Ac-Cyclo-[[Abu]-QTWQC]-[Phe[4-(2-aminoethoxy)]]-[2-Nal]-[α-MeLeu)-[Cit]-NN-NH2], the IC50 with IL23R_huFC and in the assay with Rat IL-23R_huFC [2] was under 0.01 µM throughout. The “pStat3 HTRF IC50” value in assay [3] was under 10 nM. For the same molecule, the “NK cell assay IC50 (IFNγ)” value in assay [4] is under 0.025 µM. As to Ac-CQTWQCYWRVFG[AEA][dK]-NH2 (disulfide 1-6 (inferred)) [Ac-CQTWQCYWRVFG-[AEA]-[(D)Lys]-NH2], the IC50 with Rat IL-23R_huFC [1] came out at 0.062 µM.

With CRTWQCYWRVFGXK (not fully specified; Ac-; [N-MeArg]; [AEA]; [(D)Lys]; -NH2) [Ac-C-[N-MeArg]-TWQCYWRVFG-[AEA]-[(D)Lys]-NH2], in the assay with Rat IL-23R_huFC [1], the IC50 came out at 0.192 µM.

B3: [Ac-[Pen]-NTWQ-[Pen]-[Phe(4-CONH2)]-[2-Nal]-[Aib]-KNN-NH2]2DIG (peptide)
peptide: XNTWQXFXXKNN
modifications: Ac; Pen-Pen disulfide; Phe(4-CONH2); 2-Nal; Aib; NH2; DIG linker joins the two subunits
For the molecule B3, the “pStat3 HTRF IC50” value with IL-23R on DB cells is under 10 nM.

B4: [Ac-[Pen]-NTWQ-[Pen]-[Phe(4-OMe)]-[2-Nal]-[4-amino-4-carboxy-tetrahydropyran]-KNN-NH2]2DIG (peptide)
peptide: XNTWQXFXXKNN
modifications: Ac; Pen-Pen disulfide; Phe(4-OMe); 2-Nal; 4-amino-4-carboxy-tetrahydropyran; NH2; DIG linker joins the two subunits
Consider B4, for which the “pStat3 HTRF IC50” value with IL-23R on DB cells was under 10 nM.

B5: [Ac-[Pen]-NTWQ-[Pen]-[Phe(4-CONH2)]-[2-Nal]-[α-MeLeu]-KNN-NH2]2DIG (peptide)
peptide: XNTWQXFXLKNN
modifications: Ac; Pen-Pen disulfide; Phe(4-CONH2); 2-Nal; α-MeLeu; NH2; DIG linker joins the two subunits
B5: in the assay with IL-23R on DB cells, the “pStat3 HTRF IC50” value is under 10 nM. CXTWQCYWRVFGXK (Ac-; [AEA]; [(D)Lys]; -NH2) [Ac-C-CYWRVFG-[AEA]-[(D)Lys]-NH2] yielded an IC50 with Rat IL-23R_huFC [1] of 0.051 µM. In turn, XQTWQCXXXKNG (as bracketed in name; thioether cyclo) [Ac-Cyclo-[[Abu]-QTWQC]-[2-Nal]-[2-Nal]-[α-MeOrn]-[Lys(Ac)]-NG-NH2] showed an IC50 with Rat IL-23R_huFC [5] of 0.1 to 1 µM.

B6: [Ac-[Pen]-NTWQ-[Pen]-[Phe(4-CONH2)]-[2-Nal]-[Achc]-KNN-NH2]2DIG (peptide)
peptide: XNTWQXFXXKNN
modifications: Ac; Pen-Pen disulfide; Phe(4-CONH2); 2-Nal; Achc; NH2; DIG linker joins the two subunits
On to B6, for which, in the assay with IL-23R on DB cells, the “pStat3 HTRF IC50” value was under 10 nM.

B7: [Ac-[Pen]-NTWQ-[Pen]-[Phe(4-CONH2)]-[2-Nal]-[Acvc]-KNN-NH2]2DIG (peptide)
peptide: XNTWQXFXXKNN
modifications: Ac; Pen-Pen disulfide; Phe(4-CONH2); 2-Nal; Acvc; NH2; DIG linker joins the two subunits
For B7, in the assay with IL-23R on DB cells, the “pStat3 HTRF IC50” value was under 10 nM.

B8: [Ac-[Pen]-NTWQ-[Pen]-[Phe(4-OMe)]-[2-Nal]-[Acvc]-KNN-NH2]2DIG (peptide)
peptide: XNTWQXFXXKNN
modifications: Ac; Pen-Pen disulfide; Phe(4-OMe); 2-Nal; Acvc; NH2; DIG linker joins the two subunits
Consider B8, for which the “pStat3 HTRF IC50” value in the assay with IL-23R on DB cells was under 10 nM.
